The source of these data is article PMC8151308.

The target in this assay is LEL CD81-SA labelled with Cy3 (UniProt P60033). The assay can be described thus: dynamic light scattering + other: nanoparticle tracking analysis; nanotraps (LEL CD81-SA-Cy3 on PEG-b-PLA nanoparticles, 0.50 mg/mL) mixed with HC VMPs (E2-GFP on PEG-b-PLA nanoparticles, 0.15 mg/mL) in 0.01 M sodium phosphate buffer pH 7.4, 25 °C; aggregation monitored after 5, 10, 20 and 30 min.

As to “chimeric E2 core-GFP protein (E2 core, 412-645 a.a., of hepatitis C virus fused with superfolder GFP) (from UniProt P27958 412-645) (domain or fragment)”, the percentage of aggregates (DLS, after 30 min) worked out at 33%.
